± gives the uncertainty stated by the source.
Experiment: self-splicing fitness, log relative to wild type (ln ratio); higher = more splicing; Tetrahymena group I intron in knt gene, E. coli kanamycin selection, DiMSum; sequences stand for … in CUCUCU…GGAGGGAAAAGUUAUCAGGCAUGCACCUGGUAGCUAGUCUUUAAACCAAUAGAUUGCAUCGGUUUAAAAGGCAAGACCGUCAAAUUGCGGGAAAGGGGUCAACAGCCGUUCAGUACCAAGUCUCAGGGGAAACUUUGAGAUGGCCUUGCAAAGGGUAUGGUAAUAAGCUGACGGACAUGGUCCUAACCACGCAGCCAAGUCCUAAGUCAACAGAUCUUCUGUUGAUAUGGAUGCAGUUCACAGACUAAAUGUCGGUCGGGGAAGAUGUAUUCUUCUCAUAAGAUAUAGUCGGACCUCUCCUUAAUGGGAGCUAGCGGAUGAAGUGAUGCAACACUGGAGCCGCUGGGAACUAAUUUGUAUGCGAAAGUAUAUUGAUUAGUUUUGGAGUACUCGUGGUCG
Method in brief: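 A randomised library covering all eight P1ex-region intron nucleotides was built with the intron in the knt kanamycin-resistance gene on pET-22b(+) and held in E. coli BL21(DE3). Cells were grown overnight at 37°C or 30°C on LB agar, with or without 25 μg/mL kanamycin, plus 100 μg/mL carbenicillin, 50 μM IPTG and 0.2% rhamnose, and pooled colonies were amplicon-sequenced on an Illumina HiSeq 2500. DiMSum fitness is the error-weighted combination of wild-type-normalised replicate fold changes, kanamycin versus none.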

Sequence	self-splicing fitness (ln) (30 °C)	self-splicing fitness (ln) (37 °C)
UUAGAGCAAUAUUACGUAUA	-3.64 ± 0.43	-0.846 ± 0.27
UUAGAGCAAUAUUACGUCGC	-3.05 ± 0.47	-1.76 ± 0.37
UUAGAGCAAUAUUACGUGAU	-3.95 ± 0.28	-2.52 ± 0.22
UUAGAGCAAUAUUACGUGGA	-2.18 ± 0.13	-1.6 ± 0.12
UUAGAGCAAUAUUACGUUGC	-2.58 ± 0.22	-1.25 ± 0.33
UUAUAGCAAUAUUACGAAUU	-3.24 ± 0.33	-0.681 ± 0.25
UUAUAGCAAUAUUACGACAG	-1.09 ± 0.16	-0.548 ± 0.21
UUAUAGCAAUAUUACGAGCA	-2.02 ± 0.17	-1.49 ± 0.17
UUAUAGCAAUAUUACGAGCG	-0.835 ± 0.28	-0.754 ± 0.29
UUAUAGCAAUAUUACGAUCU	-1.74 ± 0.32	-1.17 ± 0.25
UUAUAGCAAUAUUACGCCAG	-1.64 ± 0.25	-0.566 ± 0.27
UUAUAGCAAUAUUACGCGGA	-1.6 ± 0.12	-0.96 ± 0.14
UUAUAGCAAUAUUACGCUAG	-1.92 ± 0.2	-0.0618 ± 0.24
UUAUAGCAAUAUUACGCUUG	-1.46 ± 0.19	-0.162 ± 0.22
UUAUAGCAAUAUUACGGAAA	-2.13 ± 0.22	-1.67 ± 0.23
UUAUAGCAAUAUUACGGAAU	-3.67 ± 0.36	–
UUAUAGCAAUAUUACGGCCC	–	-0.921 ± 0.39
UUAUAGCAAUAUUACGGUUC	-2.77 ± 0.23	-2.16 ± 0.25
UUAUAGCAAUAUUACGUAAA	-1.34 ± 0.19	-1.58 ± 0.22
UUAUAGCAAUAUUACGUCUG	-0.366 ± 0.11	-0.511 ± 0.13
UUAUAGCAAUAUUACGUUUC	-4.48 ± 0.3	-3.31 ± 0.32
UUCAAGCAAUAUUACGACAA	0.0996 ± 0.083	-0.304 ± 0.085
UUCAAGCAAUAUUACGACGG	-1.5 ± 0.11	-0.143 ± 0.12
UUCAAGCAAUAUUACGAUUU	-3.24 ± 0.21	-1.12 ± 0.17

Sequence	self-splicing fitness (ln) (30 °C)	self-splicing fitness (ln) (37 °C)
UUCAAGCAAUAUUACGCAAG	-2.1 ± 0.2	-0.676 ± 0.17
UUCAAGCAAUAUUACGCCAA	-0.664 ± 0.11	-0.538 ± 0.11
UUCAAGCAAUAUUACGCCAU	-3.57 ± 0.4	-2.88 ± 0.43
UUCAAGCAAUAUUACGCCGG	-0.231 ± 0.097	-0.469 ± 0.13
UUCAAGCAAUAUUACGCGAG	-2.19 ± 0.096	-1.33 ± 0.1
UUCAAGCAAUAUUACGCGGG	-3.35 ± 0.28	-1.95 ± 0.21
UUCAAGCAAUAUUACGCUGA	-2.5 ± 0.16	-2.33 ± 0.21
UUCAAGCAAUAUUACGCUGU	-2.98 ± 0.17	-1.19 ± 0.14
UUCAAGCAAUAUUACGGACG	-1.48 ± 0.15	-0.868 ± 0.18
UUCAAGCAAUAUUACGGGUA	-0.67 ± 0.085	-0.182 ± 0.08
UUCAAGCAAUAUUACGGUGA	-0.763 ± 0.093	0.168 ± 0.092
UUCAAGCAAUAUUACGUGUA	-1.11 ± 0.056	-0.453 ± 0.059
UUCAAGCAAUAUUACGUGUG	-1.25 ± 0.056	-0.551 ± 0.07
UUCAAGCAAUAUUACGUGUU	-3.23 ± 0.13	-1.72 ± 0.11
UUCAAGCAAUAUUACGUUGC	–	-3.55 ± 0.46
UUCAAGCAAUAUUACGUUUA	-1.49 ± 0.087	-0.461 ± 0.082
UUCCAGCAAUAUUACGAACA	-1.42 ± 0.21	-0.887 ± 0.17
UUCCAGCAAUAUUACGACAA	-0.945 ± 0.13	0.128 ± 0.16
UUCCAGCAAUAUUACGACAU	-2.874 ± 0.018	-1.61 ± 0.035
UUCCAGCAAUAUUACGAGAA	-1.79 ± 0.17	-0.442 ± 0.16
UUCCAGCAAUAUUACGAGGU	-1.96 ± 0.17	-1.87 ± 0.16
UUCCAGCAAUAUUACGAGUU	-3.21 ± 0.13	-1.6 ± 0.092
UUCCAGCAAUAUUACGAUAA	0.0765 ± 0.06	0.459 ± 0.071
UUCCAGCAAUAUUACGAUGC	-3.4 ± 0.23	-2.79 ± 0.23

From the supplement of paper PMC7877785
